Assay results published in patent publication US20050112552A1, “Identification and isolation of novel polypeptides having PDZ domains and methods of using same” (AxCell Biosciences Corporation, priority 2000, published 2005).
Where two headings read alike, the source gives them in different places. Where no end group is shown, it is not given here.

Tests used:
[1] = target: T1, interaction between the first PDZ domain in PSD-95 and the carboxy terminal peptide sequence of Na channel protein (Homo sapiens, UniProt P78352); experiment: Competitive inhibition analysis of PDZ domain-peptide ligand interaction; format: binding; details: GST-PSD-95.1 coated plates, biotinylated Na+ channel peptide (SEQ ID NO:51), various inhibitor concentrations, A405 nm
T1 construct: a GST-PSD-95.1 fusion protein of the first PDZ domain of PSD-95; made in house
Excerpt: FIG. 19 presents a competitive inhibition analysis of the interaction between the first PDZ domain in PSD-95 and the carboxy terminal peptide sequence of Na channel protein. GST fusion protein containing the first PZD domain of PSD-95 was contacted with a recognition unit-peptide complex corresponding to the 12 carboxyl terminal amino acids of Na^+ channel protein (FIG. 5A, SEQ ID NO:51) and various concentrations of 1 of 3 different inhibitor peptide complexes. Binding of the dimer inhibitor peptide in the presence of streptavidin alkaline phosphatase/Biotin-Ser-Gly-Ser-Gly-Pro-Pro-Ser-Pro-Asp-Arg-Asp-Arg-Glu-Ser-Ile-Val-COOH (SEQ ID NO:157) is presented as a solid box. Binding of the recognition unit in the presence of a peptide corresponding to the 5 carboxy terminal residues of the Na^+ channel protein (SEQ ID NO:105) (hatched box), and in the presence of a scrambled version of this 5mer (SEQ ID NO:158) (open box), are also presented. Binding of the biotinylated peptide was quantitated at A405 nm. […]
An inhibition assay essentially as described in Section 5.4 was performed to assess the ability of PDZ ligands to uncouple NOS from the NMDA receptor. […] Particularly, biotinylated peptide and various concentrations of an inhibitor were added to microtiter plates coated with the GST-PSD-95.1 fusion protein and the binding interactions were quantified as described above. […]

PDZP2.1 = PDZP2.1 (Homo sapiens, UniProt Q96QZ7, D549G/L550P); details: GST fusion protein
Experimental: (§1) Assays that generate the data, e.g., that of FIGS. 5A and 5B, are conducted in the presence of various compounds that potentially effect the binding of the domains to respective recognition units.
(§2) To determine the ligand preferences of the novel PDZ domain-containing clones described in Section 6.1 the novel PDZ domains derived from PDZP2, PDZP3, KIAA-147, and the three PDZ domains of PSD-95 and Chapsyn were subcloned into glutathione S-transferase (GST) expression vectors and expressed as GST fusion proteins. We examined the peptide ligand binding preferences of all sixteen individual PDZ domains in an enzyme-linked immunosorbent assay-based cross-affinity map experiment. As mentioned above, 45 peptides were chosen from database searches and grouped into seven classes (G-protein coupled receptors, viral proteins, glutamate receptors, ion channels, Frizzled homologs, transporters and various other proteins). We tested the ability of these peptides to bind to the known and novel PDZ domains.
(§3) PCR fragments encoding individual PDZ domains were subcloned into the Sal1 and Notl sites of pGEX-4T-2 (Pharmacia Biotech, Inc.) and fusion proteins were expressed and purified as described by the manufacturer. ELISA based cross-affinity experiments were performed essentially as described by Sparks et al. (1996, Proc. Natl. Acad. Sci. USA 93:1540-1544) with the following modifications. Briefly, microtiter wells were coated with […] of fusion protein in 100 mM NaHCO3, blocked with SuperBlock TBS (Pierce) and washed four times with PBS, 0.05% Tween 20. Specific peptide-streptavidin/alkaline phosphatase complexes were added as above and unbound complexes washed five times with PBS, 0.05% Tween 20. Following addition of PNP substrate (p-nitrophenyl phosphate, Kirkegard & Perry Labs), peptide binding was quantitated after 30 min. at O.D. 405 nm. Relative binding measurements from three independent determinations were assigned to a scale as follows: O.D. units 0−0.5=(−), 0.5−1.0=(+), 1.0−2.0=(++), 2.0−3.0=(+++)>3.0=(++++). Peptide sequences used in cross-affinity experiments correspond to C-terminal segments of the following proteins: protein name (species: H=Human; M=Mouse; R=Rat; B=Bovine; V=Viral Origin, Genbank accession number); β1-adrenoreceptor (H, P18090); Serotonin Receptor (H, P28223); VIP Receptor (H, P32241); CRF Receptor (H, P34998); Orphan Receptor (H, P46089); β-1 Adrenergic Receptor (H, P08588); COM (ADE02, P03267); E6, HPV18 (V, P06463); UL25, HSV11 (V, P10209); GP3, EBV (V, P03200); TAT, HTL1A (V, P03409); UL14, VZVD (V, P09295); NMDA Receptor, NR2B (M, Q01097); NMDA Receptor subunit (H, U08266); mGluR1α (H, U31215); mGluR5a (H, D28538); mGluR (H, L76631); mGluR3 (H, AC002081); AMPA receptor (H, L20814); K^+-Channel, KV 1.4 (H, P22459); K^+-Channel Kir 2.2v (H, U53143); Na^+-Channel (a) (H, P15389); K^+-Channel (Kir) (H, D50582); Transmembrane Receptor (Homolog of frizzled ) (H, U43318); Homolog of frizzled (R, L02529); Homolog of frizzled (M, U43319); Glucose transporter (H, P11166); Excitatory Amino Acid Transporter (H, P43003); FAS Receptor (H, P25445); NGF Receptor (H, P08138); Neuropeptide Y Receptor, type 2 (H, P49146); Somatostatin Receptor, type 2 (H, P30874); CFTR (H, P13569); V-CAM (H, P19320); Ankyrin (H, Q01484); Fanconi anemia group C protein (H , Q00597); Calcium pump (H, P23634); APC protein (H, P25054); BCR, (H, P11274); MPK2 (H, P36507); Colorectal Mutant Cancer Protein (H, P23508); 65 KD Yes-Associated Protein (H, P46937); Neutrophil Cytosol Factor 1 (H, P14598); Neurexin III, (B, L27869); Neurexin II (B, L14855). Protein sequence homology searches were performed using BLAST (Altschul et al., 1990, J. Mol. Biol. 215:403-410).

PDZP2.2 = PDZP2.2 (Homo sapiens, UniProt Q96QZ7); details: GST fusion protein
Experimental: as §1, §2, §3

PDZP2.3 = PDZP2.3 (Homo sapiens, UniProt Q96QZ7); details: GST fusion protein
Experimental: as §1, §2, §3

PDZP2.4 = PDZP2.4 (Homo sapiens, UniProt Q96QZ7); details: GST fusion protein
Experimental: as §1, §2, §3

PDZP3.1 = PDZP3.1 (Homo sapiens, UniProt Q8NI35); details: GST fusion protein
Experimental: as §1, §2, §3

PDZP3.2 = PDZP3.2 (Homo sapiens, UniProt Q8NI35); details: GST fusion protein
Experimental: as §1, §2, §3

[2] = target: first PDZ domain of PSD-95 (PSD-95-1) (Homo sapiens, UniProt P78352); details: for binding to the first PDZ domain of PSD-95: cross-affinity map, no test compound, in words; for PDZ domain-recognition unit interaction, PSD-95-1: GST fusion protein
Experimental: as §1, §2, §3

[3] = target: first PDZ domain of Chapsyn (Homo sapiens, UniProt Q15700, V177A); details: cross-affinity map; in words
Excerpt: as §2, §3

[4] = target: second PDZ domain of Chapsyn (Homo sapiens, UniProt Q15700); details: cross-affinity map; in words
Excerpt: as §2, §3

[5] = target: T2, second PDZ domain of PSD-95 (Homo sapiens, UniProt P78352); details: cross-affinity map, in words
Excerpt: as §2, §3

[6] = target: third PDZ domain of Chapsyn (Homo sapiens, UniProt Q15700); details: cross-affinity map; in words
Excerpt: as §2, §3

[7] = target: third PDZ domain of PSD-95 (Homo sapiens, UniProt P78352, D348N); details: cross-affinity map; in words
Excerpt: as §2, §3

[8] = target: T2, second PDZ domain of PSD-95; design: PCR fragments encoding individual PDZ domains were subcloned; made in house; details: stated as known; cited from earlier work
[9] = listed as NMDA receptor NR2 subunit

Chain of PDZP3.2 (Q8NI35 1530-1614 limits assumed): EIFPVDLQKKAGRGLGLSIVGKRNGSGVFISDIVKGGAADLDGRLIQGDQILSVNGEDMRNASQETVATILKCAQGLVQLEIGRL
Chain of PDZP2.1 (Q96QZ7 468-553 D549G/L550P limits assumed): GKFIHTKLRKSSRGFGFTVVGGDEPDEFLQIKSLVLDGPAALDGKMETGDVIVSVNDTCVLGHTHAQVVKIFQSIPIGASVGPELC
Chain of PDZP2.4 (Q96QZ7 with tags, fused parts or gaps isoform Q96QZ7-2 limits assumed): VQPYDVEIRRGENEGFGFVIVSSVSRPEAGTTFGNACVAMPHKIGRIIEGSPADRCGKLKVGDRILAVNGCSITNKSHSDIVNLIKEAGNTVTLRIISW
Chain of PDZP2.2 (Q96QZ7 639-720 limits assumed): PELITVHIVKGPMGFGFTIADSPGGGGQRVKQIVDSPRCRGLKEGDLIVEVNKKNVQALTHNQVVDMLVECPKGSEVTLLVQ
Chain of PDZP3.1 (Q8NI35 1433-1519 limits assumed): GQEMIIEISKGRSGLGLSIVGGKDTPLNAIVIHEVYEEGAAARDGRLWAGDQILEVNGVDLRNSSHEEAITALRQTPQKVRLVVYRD
Chain of PDZP2.3 (Q96QZ7 837-922 limits assumed): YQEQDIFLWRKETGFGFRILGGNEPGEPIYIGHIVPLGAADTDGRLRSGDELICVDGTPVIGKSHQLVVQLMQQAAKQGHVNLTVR

AC-Cys-Pro-Pro-Ser-Pro-Asp-Arg-Asp-Arg-Glu-Ser-Ile-Val-COOH (Ac-CPPSPDRDRESIV-OH) [dimer inhibitor]
inhibition of the interaction of the PDZ domain and ligand [1]: able to inhibit

Arg-Glu-Ser-Ile-Val-COOH (RESIV-OH) [5mer containing the carboxy terminal 5 residues of the Na+ channel peptide]
inhibition of the interaction of the PDZ domain and ligand [1]: to a lesser extent

SEQ ID NO. 42: biotinylated peptide, 12 carboxy terminal amino acids of NMDA (NR2B), mouse (VYEKLSSIESDV; not fully specified; also: biotinylated, position not given here)
PDZ domain-recognition unit interaction, PDZP2.1 (PDZP2.1; in the presence of Compound A): + (0.5−1.0=(+)) | PDZ domain-recognition unit interaction, PDZP2.1 (PDZP2.1; in the presence of Compound B): ++++ (>3.0=(++++)) | PDZ domain-recognition unit interaction, PDZP2.1 (PDZP2.1; in the presence of Compound C): + (0.5−1.0=(+)) | PDZ domain-recognition unit interaction, PDZ2.2 (PDZP2.2; in the presence of Compound A): + (0.5−1.0=(+)) | PDZ domain-recognition unit interaction, PDZ2.2 (PDZP2.2; in the presence of Compound B): +++ (2.0−3.0=(+++)) | PDZ domain-recognition unit interaction, PDZ2.2 (PDZP2.2; in the presence of Compound C): + (0.5−1.0=(+)) | PDZ domain-recognition unit interaction, PDZ2.3 (PDZP2.3; in the presence of Compound A): + (0.5−1.0=(+)) | PDZ domain-recognition unit interaction, PDZ2.3 (PDZP2.3; in the presence of Compound B): ++++ (>3.0=(++++)) | PDZ domain-recognition unit interaction, PDZ2.3 (PDZP2.3; in the presence of Compound C): + (0.5−1.0=(+)) | PDZ domain-recognition unit interaction, PDZ2.4 (PDZP2.4; in the presence of Compound A): + (0.5−1.0=(+)) | PDZ domain-recognition unit interaction, PDZ2.4 (PDZP2.4; in the presence of Compound B): ++++ (>3.0=(++++)) | PDZ domain-recognition unit interaction, PDZ2.4 (PDZP2.4; in the presence of Compound C): + (0.5−1.0=(+)) | PDZ domain-recognition unit interaction, PDZ3.1 (PDZP3.1; in the presence of Compound A): + (0.5−1.0=(+)) | PDZ domain-recognition unit interaction, PDZ3.1 (PDZP3.1; in the presence of Compound B): ++++ (>3.0=(++++)) | PDZ domain-recognition unit interaction, PDZ3.1 (PDZP3.1; in the presence of Compound C): ++++ (>3.0=(++++)) | PDZ domain-recognition unit interaction, PDZ3.2 (PDZP3.2; in the presence of Compound A): − (O.D. units 0−0.5=(−)) | PDZ domain-recognition unit interaction, PDZ3.2 (PDZP3.2; in the presence of Compound B): − (O.D. units 0−0.5=(−)) | PDZ domain-recognition unit interaction, PDZ3.2 (PDZP3.2; in the presence of Compound C): − (O.D. units 0−0.5=(−)) | binding to the first PDZ domain of PSD-95 [2]: positive interaction | binding to the first PDZ domain of PSD-95 [2, 9]: bind to the first and second PDZ domain | PDZ domain-recognition unit interaction, PSD-95-1 ([2]; in the presence of Compound A): − (O.D. units 0−0.5=(−)) | PDZ domain-recognition unit interaction, PSD-95-1 ([2]; in the presence of Compound B): +++ (2.0−3.0=(+++)) | PDZ domain-recognition unit interaction, PSD-95-1 ([2]; in the presence of Compound C): +++ (2.0−3.0=(+++)) | binding to the first PDZ domain of Chapsyn [3]: same binding specificities | binding to the second PDZ domain of Chapsyn [4]: same binding specificities | binding to the second PDZ domain of PSD-95 [5]: positive interaction | binding to the second PDZ domain of PSD-95 [5, 9]: bind to the first and second PDZ domain | binding to the third PDZ domain of Chapsyn [6]: same binding specificities | binding to the third PDZ domain of PSD-95 [7]: not the third PDZ domain | binding to the second PDZ domain of PSD-95 [8]: binds
